Laboratory results: article PMC5397172

Assays:
Test in all cases: EMSA
Flag-p50 (homodimer) = Flag-p50 (homodimer) (UniProt P19838 1-433)
HA-p65;Flag-p50 = HA-p65;Flag-p50 (human?;human?, UniProt Q04206;P19838 1-551;1-433, |)
Flag-p65 (homodimer) = Flag-p65 (homodimer) (UniProt Q04206 1-551)

Measured: binding result

Sequence of Flag-p50 (homodimer) (P19838 1-433): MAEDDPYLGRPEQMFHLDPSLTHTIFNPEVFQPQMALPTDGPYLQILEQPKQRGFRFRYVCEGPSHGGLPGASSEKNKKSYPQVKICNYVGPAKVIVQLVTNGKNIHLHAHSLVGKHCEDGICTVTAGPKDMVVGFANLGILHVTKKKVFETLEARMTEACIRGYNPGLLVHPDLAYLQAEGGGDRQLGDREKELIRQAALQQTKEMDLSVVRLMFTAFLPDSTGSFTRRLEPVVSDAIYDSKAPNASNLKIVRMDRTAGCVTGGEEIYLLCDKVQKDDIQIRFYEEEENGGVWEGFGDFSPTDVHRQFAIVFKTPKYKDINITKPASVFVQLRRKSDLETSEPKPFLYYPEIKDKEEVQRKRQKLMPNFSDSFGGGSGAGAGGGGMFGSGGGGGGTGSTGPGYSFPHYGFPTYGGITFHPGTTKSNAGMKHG
Sequence of Flag-p65 (homodimer) (Q04206 whole entry): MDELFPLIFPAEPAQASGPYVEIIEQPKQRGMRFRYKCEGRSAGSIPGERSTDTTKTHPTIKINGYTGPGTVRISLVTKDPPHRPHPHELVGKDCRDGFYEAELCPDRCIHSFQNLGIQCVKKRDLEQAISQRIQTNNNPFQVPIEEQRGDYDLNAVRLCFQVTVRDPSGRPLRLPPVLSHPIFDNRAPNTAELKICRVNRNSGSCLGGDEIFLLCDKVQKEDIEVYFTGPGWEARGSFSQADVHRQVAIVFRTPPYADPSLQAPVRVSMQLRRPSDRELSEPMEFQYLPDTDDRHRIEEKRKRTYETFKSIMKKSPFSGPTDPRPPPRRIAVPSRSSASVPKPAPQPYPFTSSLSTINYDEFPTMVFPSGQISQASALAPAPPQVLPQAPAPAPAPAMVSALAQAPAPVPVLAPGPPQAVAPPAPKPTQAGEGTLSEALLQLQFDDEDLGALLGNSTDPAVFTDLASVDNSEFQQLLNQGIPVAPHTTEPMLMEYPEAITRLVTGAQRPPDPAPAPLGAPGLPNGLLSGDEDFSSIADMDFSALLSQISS
Sequence of HA-p65;Flag-p50 (Q04206 whole entry, chain 1 of 2): as the sequence (Q04206 whole entry) above
Sequence of HA-p65;Flag-p50 (P19838 1-433, chain 2 of 2): as the sequence (P19838 1-433) above

B1: Ig kappaB mutant (dsDNA)
DNA 1: AGTTGAATCCACTTTCCCAGG
DNA 2: CCTGGGAAAGTGGATTCAACT
no binding: Flag-p50 (homodimer) | HA-p65;Flag-p50 | Flag-p65 (homodimer)
